Molecular target: hNFI-C220-H6 (human, UniProt P08651 1-220)
Assay: EMSA; ~5 ng protein; EMSA on 6.5% non-denaturing polyacrylamide gel (Fig. 2A); buffer, salt, pH and temperature not given (as in cited refs 38, 54)
Settings: protein: recombinant; tags: 6xHis; chain copies: 2

Sequence of hNFI-C220-H6 (P08651 1-220): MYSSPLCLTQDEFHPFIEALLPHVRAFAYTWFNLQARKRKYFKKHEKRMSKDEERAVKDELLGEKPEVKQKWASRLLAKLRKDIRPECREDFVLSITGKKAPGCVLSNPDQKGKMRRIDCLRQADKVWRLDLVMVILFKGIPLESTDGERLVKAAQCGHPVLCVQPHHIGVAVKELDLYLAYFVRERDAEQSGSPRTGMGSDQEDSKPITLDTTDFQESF

B1: C2 (dsDNA)
DNA 1: AGGTCTCGCTTTGGGCCAAGAGCCGC
DNA 2: GCGGCTCTTGGCCCAAAGCGAGACCT
binding result: no binding

B2: 2.6 (dsDNA)
DNA 1: AGGTCTGGCTTTGGGCCAAGAGCCGC
DNA 2: GCGGCTCTTGGCCCAAAGCCAGACCT
binding result: binds

From publication PMC1277823, “nfi-1 affects behavior and life-span in C. elegans but is not essential for DNA replication or survival”
